We go through 2 molecules from patent publication US20110165161A1, “ANTI-EPCAM ANTIBODIES THAT INDUCE APOPTOSIS OF CANCER CELLS AND METHODS USING SAME” (priority 2009, published 2011).

One data set relates to CHO parental cells. The data set can be described thus: FACS binding of anti-EpCAM antibodies to CHO parental cells. Also noted: species or system Chinese hamster. The settings on record: antibody 0.1 μg/ml; HPS at 300x dilution. As for the experimental part: 1×10^5 CHO/EpCAM or CHO parental cells were seeded in each well of a v-bottomed 96-well plate and incubated with purified anti-EpCAM antibodies or mouse IgG control antibody 9E10 at concentration of 0.1 μg/ml. A 300× dilution of human cell hyper-immune serum (HPS 300×) was used as binding positive control for both cell lines here. After 1 hr incubation at 4° C., cells were washed twice with 200 μl FACS buffer (1×PBS containing 1% FBS), stained with 100 μl of 1 μg/ml goat-anti-mouse IgG-PE (Southern Biotech, Cat. No. 1032-09) in FACS buffer and then incubated at 4° C. for 30 min. Cells were washed thrice with FACS buffer and analyzed by flow cytometry (BD LSR, BD Life Sciences).
(A flow cytometer gives signals particle by particle.)

The subject of data set [1] is Gastric cancer NCI-N87 cells. As to the kind of experiment: Antibody cytotoxicity assay (Annexin V + PI), NCI-N87. Type of data set: cell-based. The settings on record: for Induction of cell death (in words): 1, 3 and 10 μg/ml, overnight; for Cytotoxic effect (Annexin V + PI staining, dead cells): 17-20 hr. As for the experimental part: (§1) After a 17-20 hr incubation at 37° C., cells were stained with 0.3 μl of FITC-conjugated Annexin V (Strong Biotech Corp. Cat. No. AVK250) in 50 μl Annexin V binding buffer (Strong Biotech Corp. Cat. No. AVK250) at RT for 20 min. After wash, the cells were then stained with 0.3 μl of propidium iodide in 200 μl Annexin V binding buffer. Annexin V and Propidium Iodide were used as a joint indicator for cell death. The data were acquired with BD FACSCalibur based on an acquisition of 3,000-5,000 cells and analyzed with the Cell Quest software. The combined percentages of the Annexin V+/PI+, Annexin V+/PI− and Annexin V−/PI+populations were considered as dead cells.

In data set [2] the test system is Prostate cancer LNCaP cells. As to the kind of experiment: Antibody cytotoxicity assay (Annexin V + PI), LNCaP. The conditions noted are these: for Induction of cell death (in words): 1, 3 and 10 μg/ml, overnight; for Cytotoxic effect (Annexin V + PI staining, dead cells): 17-20 hr. Type of data set: cell-based. As for the experimental part: as §1
Data set [3] relates to Pharynx cancer FaDu cells. The data set can be described thus: Antibody cytotoxicity assay (Annexin V + PI), FaDu. Type of data set: cell-based. The conditions noted are these: for Induction of cell death (in words): 1, 3 and 10 μg/ml, overnight; for Cytotoxic effect (Annexin V + PI staining, dead cells): 17-20 hr. As for the experimental part:
as §1

In data set [4] the test system is Ovarian cancer NIH:OVCAR-3 cells. The data set can be described thus: Antibody cytotoxicity assay (Annexin V + PI), NIH:OVCAR-3. It is filed as cell-based. The settings on record: for Induction of cell death (in words): 1, 3 and 10 μg/ml, overnight; for Cytotoxic effect (Annexin V + PI staining, dead cells): 17-20 hr. As for the experimental part: as §1

B1: 1F10: murine anti-human EpCAM monoclonal antibody (IgG1, λ1), hybridoma m338-1F10.3; VH SEQ ID NO:11, VL SEQ ID NO:13 (antibody, listed as Mus musculus, V domains shown)
VH: EVKLLESGGGLVQPGGSLKLSCAASGFDFSRYWMSWVRQAPGKGLEWIGEINPDSSTMNYTPSLKDKFIISRDNAKNTLYLQMSKVRSEDTALYYCARGAYAMDYWGQGTSVTVSS
VL: QAVVTQESALTTSPGETVTLTCRSSTGAVTTSNNANWVQEKPDHLFTGLIGATNNRAPGVPARFSGSLIGDKAALTITGAQTEDEAIYFCALWYINHWVFGGGTKLTVLG
B1: in the data set with CHO parental cells, the “Binding (FACS, Mean fluorescence intensity (MFI)) CHO” value is reported as 6. Also, the “Induction of cell death (in words)” value in data set [1], in data set [2], in data set [3] and in data set [4] was “substantial cell death” each time. The “Cytotoxic effect (Annexin V + PI staining, dead cells)” value (“Cytotoxic effect” for short) is reported as 57% in data set [1] (mAb 1.0 μg/ml); 57% in data set [1] (mAb 3.0 μg/ml); 57% in data set [1] (mAb 10 μg/ml); 47% in data set [2] (mAb 1.0 μg/ml); 53% in data set [2] (mAb 3.0 μg/ml); 48% in data set [2] (mAb 10 μg/ml). Also, the “Cytotoxic effect” value in data set [3] (mAb 1.0 μg/ml) amounted to 44%; in data set [3] (mAb 3.0 μg/ml), 42%; in data set [3] (mAb 10 μg/ml), 45%; in data set [4] (mAb 1.0 μg/ml) it was 53%; in data set [4] (mAb 3.0 μg/ml), 57%; in data set [4] (mAb 10 μg/ml) it was 59%.

B2: 1G10: murine anti-human EpCAM monoclonal antibody (IgG1, K), hybridoma m290-1G10; VH SEQ ID NO:7, VL SEQ ID NO:9 (antibody, listed as Mus musculus, V domains shown)
VH: QIQLVQSGPELKKPGETVKISCKASGYTFTNYGMNWVKQAPGKGFKWMGWINTYTGEPTYADDFKGRFAFSLETSASTAYLQINNLQNEDMATYFCARWGYDFDYWGQGTTLTVSS
VL: QIVLTQSPAIMSSSPGEKVTMTCSASSSISYMNWYQQKPGTSPKRWIYDTSKLASGVPARFSGSGSGTSYSLTISSMEAEDAATYYCHQRSSYPYTFGGGTKLEIKR
Consider B2, for which, in the data set with CHO parental cells, the “Binding (FACS, Mean fluorescence intensity (MFI)) CHO” value came out at 5. Moreover, the “Induction of cell death (in words)” value in data set [1], in data set [2], in data set [3] and in data set [4] was “substantial cell death” throughout. The “Cytotoxic effect” value in data set [1] (mAb 1.0 μg/ml) was 50%; in data set [1] (mAb 3.0 μg/ml), 60%; in data set [1] (mAb 10 μg/ml), 60%; in data set [2] (mAb 1.0 μg/ml) it was 42%; in data set [2] (mAb 3.0 μg/ml), 55%; in data set [2] (mAb 10 μg/ml) it was 45%. The “Cytotoxic effect” value in data set [3] (mAb 1.0 μg/ml) amounted to 40%; in data set [3] (mAb 3.0 μg/ml), 50%; in data set [3] (mAb 10 μg/ml), 51%; in data set [4] (mAb 1.0 μg/ml) it was 40%; in data set [4] (mAb 3.0 μg/ml), 50%; in data set [4] (mAb 10 μg/ml), 52%.
